What was measured:
human C5a receptor [1] = target: T1, human C5a receptor (human, UniProt P21730 1-350); assay: cell-based or functional assay
T1 chain: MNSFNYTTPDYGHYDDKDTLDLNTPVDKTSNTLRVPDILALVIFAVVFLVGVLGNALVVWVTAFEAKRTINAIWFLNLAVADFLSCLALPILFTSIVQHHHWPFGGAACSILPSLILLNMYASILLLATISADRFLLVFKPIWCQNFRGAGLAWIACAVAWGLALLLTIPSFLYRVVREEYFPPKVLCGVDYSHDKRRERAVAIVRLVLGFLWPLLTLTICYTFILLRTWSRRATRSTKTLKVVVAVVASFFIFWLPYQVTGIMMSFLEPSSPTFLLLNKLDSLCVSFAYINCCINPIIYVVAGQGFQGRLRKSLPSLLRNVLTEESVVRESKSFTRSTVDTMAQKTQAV

[2] = target: T2, chimeric receptor 1. HHHH (human, UniProt P21730 1-350); assay: flow cytometry on transiently transfected L1.2 cells
T2 construct: Transiently expressed on mouse L1.2 cells
T2 chain: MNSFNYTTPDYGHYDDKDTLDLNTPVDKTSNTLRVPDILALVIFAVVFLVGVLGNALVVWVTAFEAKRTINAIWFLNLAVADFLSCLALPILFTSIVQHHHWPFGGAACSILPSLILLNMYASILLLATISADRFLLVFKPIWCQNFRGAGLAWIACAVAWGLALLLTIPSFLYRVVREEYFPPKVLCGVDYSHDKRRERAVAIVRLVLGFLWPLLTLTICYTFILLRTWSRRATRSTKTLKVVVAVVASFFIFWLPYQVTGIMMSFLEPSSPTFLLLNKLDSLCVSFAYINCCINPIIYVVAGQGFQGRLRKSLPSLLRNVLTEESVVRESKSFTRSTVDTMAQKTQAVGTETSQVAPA
Procedure: (§1) A series of chimeric receptors comprising segments of mouse and human C5aR were constructed to identify the region of the C5a receptor that the antibodies bound. […] Each recombinant vector (5 μg diluted in DMEM) encoding a different chimeric receptor was transfected into 5×10⁵ mouse L1.2 cells using Lipofectamine 2000 (Invitrogen). Cells were grown in DMEM or RPMI (Invitrogen) plus 10% foetal bovine serum (Hyclone). After 24 hours or 48 hours, cells were harvested by centrifugation at 1,500 rpm for 5 min and resuspended in FACS buffer (phosphate buffered saline plus 2% bovine serum albumin). For staining with hAb-Q, 0.5×10⁵ transfected cells were incubated with 5 or 10 μg/ml antibody in a volume of 50 μl per well at 4° C. for 20 minutes. Cells were pelleted as above and rinsed 3 times with 150 μl FACS buffer before addition of 50 μl FITC-conjugated anti-human IgG diluted 1:200 or 1:300 (Sigma, F1641). This mix was incubated for 20 min at 4° C. before cells were pelleted, washed with FACS buffer 3 times and finally resuspended in 150-200 μl FACS buffer. Samples were analysed on a FACS Calibur (BD Biosciences).
(§2) To confirm that the humanised antibody hAb-Q, which was derived from mouse mAb 7F3 by CDR grafting, and therefore should contain the same antigen-binding site, had the same staining pattern as 7F3, transiently transfected cells expressing the different chimeric human/mouse C5aR were stained with hAb-Q and analysed by flow cytometry. The pattern of staining by hAb-Q was identical to that observed with 7F3. There was no staining by the secondary antibody (anti-hIgG-FITC) alone.

[3] = target: T3, chimeric receptor 2. mHHH (mouse; human, UniProt P30993 1-39); assay: as above
T3 construct: range 1-39; Transiently expressed on mouse L1.2 cells
T3 sequence: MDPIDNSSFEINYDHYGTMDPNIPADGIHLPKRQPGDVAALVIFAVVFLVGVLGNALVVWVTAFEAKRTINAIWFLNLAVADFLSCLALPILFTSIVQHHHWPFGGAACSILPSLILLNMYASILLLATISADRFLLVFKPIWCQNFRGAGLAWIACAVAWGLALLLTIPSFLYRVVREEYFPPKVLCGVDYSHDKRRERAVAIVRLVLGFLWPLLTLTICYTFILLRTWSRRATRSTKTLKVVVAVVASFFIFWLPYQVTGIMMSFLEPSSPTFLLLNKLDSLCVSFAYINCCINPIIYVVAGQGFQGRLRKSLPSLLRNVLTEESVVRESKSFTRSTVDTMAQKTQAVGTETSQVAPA
Procedure: as §1, §2

[4] = target: T4, chimeric receptor 3. mmHH (mouse; human, UniProt P30993 1-111); assay: as above
T4 construct: range 1-111; Transiently expressed on mouse L1.2 cells
T4 sequence: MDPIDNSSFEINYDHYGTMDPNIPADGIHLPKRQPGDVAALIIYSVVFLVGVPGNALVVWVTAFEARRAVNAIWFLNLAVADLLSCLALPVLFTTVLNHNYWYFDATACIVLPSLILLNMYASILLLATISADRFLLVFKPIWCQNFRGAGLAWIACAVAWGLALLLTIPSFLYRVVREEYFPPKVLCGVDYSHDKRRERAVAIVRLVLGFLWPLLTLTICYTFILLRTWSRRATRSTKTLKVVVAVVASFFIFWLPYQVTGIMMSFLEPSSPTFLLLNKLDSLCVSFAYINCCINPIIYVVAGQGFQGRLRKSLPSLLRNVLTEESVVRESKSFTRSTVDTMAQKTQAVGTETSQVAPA
Procedure: as §1, §2

human C5a receptor [5] = target: T1, human C5a receptor; assay: flow cytometry of bound hAb-Q (anti-hIgG-FITC) on human neutrophils, pre-chemotaxis samples
Procedure: The FACSCalibur flow cytometer was set up with compensation parameters established for channel FL-1. Samples were acquired to exclude dead cells and debris. Neutrophils were identified based on FSC and SSC. The level of bound hAb-Q (anti-hIgG-FITC) or free C5aR (hAb-Q-FITC) was determined by determining the FITC (FL-1) mean fluorescence intensity (MFI) of the neutrophils in a sample.
Four experiments were carried out. Briefly, purified neutrophils isolated from the venous blood of a healthy volunteer were preincubated for 10 min with hAb-Q at concentrations ranging from 0.001 to 100 μg/ml. A small aliquot of this mix was taken to determine the amount of antibody bound receptor (% receptor occupancy) and the remainder was placed in the upper chamber of a transwell plate. C5a (10 nM) was placed in the lower chamber. After 30 min incubation, the number of cells that had migrated into the lower chamber was determined using FACS. The amount of bound antibody on the neutrophils in both the lower and upper chambers at the end of migration was also determined, using FITC-labelled anti-hIgG and flow cytometry. The level of free receptor (no bound antibody) was determined in one experiment by incubating the neutrophils with FITC-labelled hAb-Q before and after migration.

B1: humanized anti-C5aR antibody hAb-Q (antibody, human IgG4 S228P, kappa)
light: DVVMTQSPLSLPVTLGEPASISCRSSQSLVHSNGNTYLHWYLQKPGQSPQLLIYKVSNRFSGVPDRFSGSGSGTDFTLKISRVEAEDVGVYFCSQSTLVPLTFGQGTKLEIKRTVAAPSVFIFPPSDEQLKSGTASVVCLLNNFYPREAKVQWKVDNALQSGNSQESVTEQDSKDSTYSLSSTLTLSKADYEKHKVYACEVTHQGLSSPVTKSFNRGEC
heavy: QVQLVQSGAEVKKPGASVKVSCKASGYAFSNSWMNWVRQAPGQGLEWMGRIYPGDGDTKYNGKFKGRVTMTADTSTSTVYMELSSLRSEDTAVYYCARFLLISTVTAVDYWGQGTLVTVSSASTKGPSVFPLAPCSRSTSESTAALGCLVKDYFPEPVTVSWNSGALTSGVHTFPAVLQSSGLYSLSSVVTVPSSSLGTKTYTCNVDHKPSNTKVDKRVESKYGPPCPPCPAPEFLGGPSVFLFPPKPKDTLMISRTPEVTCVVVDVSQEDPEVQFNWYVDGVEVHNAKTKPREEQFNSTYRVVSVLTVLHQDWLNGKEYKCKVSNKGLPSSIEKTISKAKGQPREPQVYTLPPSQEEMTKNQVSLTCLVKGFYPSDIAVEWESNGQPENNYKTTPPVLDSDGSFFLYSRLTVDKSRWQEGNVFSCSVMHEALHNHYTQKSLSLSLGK
notes: IgG4 with the Ser228Pro mutation; also called antibody Q; anti-C5aR ab
**Q.** For B1, which “Ab conc. tested but not effective at blocking Ca2+-flux (human neutrophils, 1 nM C5a)” value (human C5a receptor [1]) is on record?
**A.** Its value is 0.5 µg/mL.

**Q.** Does B1 bind [2]?
**A.** Result: binds

**Q.** Does B1 bind [3]?
**A.** Result: binds

**Q.** Does B1 bind [4]?
**A.** Result: binds

**Q.** And the EC50 (human C5a receptor [5])?
**A.** The EC50 was 0.3 µg/mL.

From US20110190477A1 (G2 INFLAMMATION, published 2011)
